Positions count from the first letter of the chain named. Names may count otherwise.
Tests used:
[1] = target: T1, rHuman Erythropoietin R/Fc Chimera, CF (R&D Systems Cat#963-ER) (human, UniProt P19235 25-250); assay: Multispot ECL (MSD), antigen spotted on plate, Fab 210 nM; blank spot 833
T1 construct: Bought recombinant protein; also called EPO R/Fc; Epo R; Fc part of the bought chimera not given
T1 sequence (looked up): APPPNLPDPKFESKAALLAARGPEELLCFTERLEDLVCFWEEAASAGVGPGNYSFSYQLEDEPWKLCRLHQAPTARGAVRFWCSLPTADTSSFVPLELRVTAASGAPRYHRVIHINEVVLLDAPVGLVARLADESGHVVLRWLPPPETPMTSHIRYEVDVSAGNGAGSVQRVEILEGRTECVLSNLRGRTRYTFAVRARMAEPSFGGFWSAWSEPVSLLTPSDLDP

[2] = target: T2, rHuman ErbB2/Fc Chimera, CF (R&D Systems Cat#1129-ER) (human, UniProt P04626 23-652); assay: as above
T2 construct: Bought recombinant protein; also called human epidermal growth factor 2 receptor; Fc part of the bought chimera not given

[3] = target: T3, rHuman EGF R/Fc Chimera, CF (R&D Systems Cat#344-ER) (human, UniProt P00533 25-645); assay: as above
T3 construct: Bought recombinant protein; also called epidermal growth factor receptor; Fc part of the bought chimera not given

[4] = target: T4, rHuman HGF R/c-MET/Fc Chimera, CF (R&D Systems Cat#358-MT/CF) (human, UniProt P08581 25-932); assay: as above
T4 construct: Bought recombinant protein; also called HGF R/Fc; hepatocyte growth factor receptor; Fc part of the bought chimera not given
T4 sequence (P08581 25-932, change not shown): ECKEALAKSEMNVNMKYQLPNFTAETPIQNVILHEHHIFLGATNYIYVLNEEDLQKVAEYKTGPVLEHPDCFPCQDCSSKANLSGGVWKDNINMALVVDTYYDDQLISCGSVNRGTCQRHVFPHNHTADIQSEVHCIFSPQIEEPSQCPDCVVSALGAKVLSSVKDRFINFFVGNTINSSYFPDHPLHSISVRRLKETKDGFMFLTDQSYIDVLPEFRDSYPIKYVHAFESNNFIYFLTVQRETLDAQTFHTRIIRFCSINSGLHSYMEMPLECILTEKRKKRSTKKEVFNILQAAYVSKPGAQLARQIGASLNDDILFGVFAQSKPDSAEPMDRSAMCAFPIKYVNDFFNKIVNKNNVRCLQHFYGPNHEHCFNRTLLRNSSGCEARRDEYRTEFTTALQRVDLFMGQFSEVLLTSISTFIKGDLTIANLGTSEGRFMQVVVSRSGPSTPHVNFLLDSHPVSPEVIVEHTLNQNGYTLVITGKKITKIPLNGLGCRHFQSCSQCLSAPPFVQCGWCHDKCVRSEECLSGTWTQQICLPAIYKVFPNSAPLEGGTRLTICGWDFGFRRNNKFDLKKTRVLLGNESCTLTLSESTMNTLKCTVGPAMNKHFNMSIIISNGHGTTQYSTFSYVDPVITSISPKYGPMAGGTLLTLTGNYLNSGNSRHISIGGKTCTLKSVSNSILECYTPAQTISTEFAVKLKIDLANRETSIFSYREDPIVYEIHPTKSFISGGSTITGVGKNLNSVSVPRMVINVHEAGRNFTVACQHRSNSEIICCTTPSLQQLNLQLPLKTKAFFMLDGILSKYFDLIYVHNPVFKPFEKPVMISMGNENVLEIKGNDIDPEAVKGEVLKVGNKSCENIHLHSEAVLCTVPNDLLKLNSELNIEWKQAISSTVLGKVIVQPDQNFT

[5] = target: T5, rHuman CD44/Fc Chimera, CF (R&D Systems Cat#3660-CD) (human, UniProt P16070 21-220); assay: as above
T5 construct: Bought recombinant protein; Fc part of the bought chimera not given

[6] = target: T1, rHuman Erythropoietin R/Fc Chimera, CF …; assay: Multispot ECL (MSD), antigen spotted on plate, Fab 3.3 nM; blank spot 359
[7] = target: T2, rHuman ErbB2/Fc Chimera, CF (R&D …); assay: as above
[8] = target: T3, rHuman EGF R/Fc Chimera, CF (R&D …); assay: as above
[9] = target: T4, rHuman HGF R/c-MET/Fc Chimera, CF (R&D …); assay: as above
[10] = target: T5, rHuman CD44/Fc Chimera, CF (R&D Systems …); assay: as above
[11] = target: T1, rHuman Erythropoietin R/Fc Chimera, CF …; assay: Multispot ECL (MSD), antigen spotted on plate, Fab 13.1 nM; blank spot 376
[12] = target: T2, rHuman ErbB2/Fc Chimera, CF (R&D …); assay: as above
[13] = target: T3, rHuman EGF R/Fc Chimera, CF (R&D …); assay: as above
[14] = target: T4, rHuman HGF R/c-MET/Fc Chimera, CF (R&D …); assay: as above
[15] = target: T5, rHuman CD44/Fc Chimera, CF (R&D Systems …); assay: as above
[16] = target: T1, rHuman Erythropoietin R/Fc Chimera, CF …; assay: Multispot ECL (MSD), antigen spotted on plate, Fab 52.5 nM; blank spot 467
[17] = target: T2, rHuman ErbB2/Fc Chimera, CF (R&D …); assay: as above
[18] = target: T3, rHuman EGF R/Fc Chimera, CF (R&D …); assay: as above
[19] = target: T4, rHuman HGF R/c-MET/Fc Chimera, CF (R&D …); assay: as above
[20] = target: T5, rHuman CD44/Fc Chimera, CF (R&D Systems …); assay: as above
[21] = target: T6, Recombinant Human DLL4 (R&D Systems Cat#1506-D4/CF) (human, UniProt Q9NR61 27-524); assay: 96-well plate ECL
T6 construct: bought recombinant protein; also called rHuman DLL4; delta-like protein 4

[22] = target: T6, Recombinant Human DLL4 (R&D Systems …); assay: Multispot ECL
[23] = target: T7, Recombinant Human DLL4 (delta-like protein 4) (human, UniProt Q9NR61 27-524); assay: ECL (MSD) binding assay, Fab on immobilised recombinant human DLL4
T7 construct: Bought recombinant protein; also called rHuman DLL4

B1: Fab VH4-31_IGHD2-15*01_IGHJ2*01 & V1-4_IGLJ4*01 (Fab, V domains shown)
VH: QVQLQESGPGLVKPSQTLSLTCTVSGGSISSGGYYWSWIRQHPGKGLEWIGYIYYSGSTYYNPSLKSRVTISVDTSKNQFSLKLSSVTAADTAVYYCAREGYCSGGSCYSYWYFDLWGRGTLVTVSS
VL: QSALTQPASVSGSPGQSITISCTGTSSDVGGYNYVSWYQQHPGKAPKLMIYEVSNRPSGVSNRFSGSKSGNTASLTISGLQAEDEADYYCSSYTSSSTLFVFGGGTQLIIL
notes: Tested as a Fab made in E. coli; The heavy chain variable region was cloned into Plasmid A (CH1 constant region, His6 and Flag tags); The lambda light chain variable region was cloned into Plasmid E (lambda CL); Only the variable domains are tied to this Fab by name
[1]
  ECL signal at 210 nM Fab: 2120
[2]
  ECL signal at 210 nM Fab: 1980
[3]
  ECL signal at 210 nM Fab: 1620
[4]
  ECL signal at 210 nM Fab: 2060
[5]
  ECL signal at 210 nM Fab: 1400
[6]
  ECL signal at 3.3 nM Fab: 695
[7]
  ECL signal at 3.3 nM Fab: 1030
[8]
  ECL signal at 3.3 nM Fab: 847
[9]
  ECL signal at 3.3 nM Fab: 849
[10]
  ECL signal at 3.3 nM Fab: 621
[11]
  ECL signal at 13.1 nM Fab: 776
[12]
  ECL signal at 13.1 nM Fab: 930
[13]
  ECL signal at 13.1 nM Fab: 824
[14]
  ECL signal at 13.1 nM Fab: 981
[15]
  ECL signal at 13.1 nM Fab: 708
[16]
  ECL signal at 52.5 nM Fab: 1320
[17]
  ECL signal at 52.5 nM Fab: 1510
[18]
  ECL signal at 52.5 nM Fab: 1110
[19]
  ECL signal at 52.5 nM Fab: 1290
[20]
  ECL signal at 52.5 nM Fab: 897

B2: Fab VH5-51_IGHD5-18*01>3_IGHJ4*01 G100K & V3-4_IGLJ1*01 (Fab, V domains shown)
VH: EVQLVQSGAEVKKPGESLKISCKGSGYSFTSYWIGWVRQMPGKGLEWMGIIYPGDSDTRYSPSFQGQVTISADKSISTAYLQWSSLKASDTAMYYCARRKYSYGYDYFDYWGQGTLVTVSS
VL: QTVVTQEPSFSVSPGGTVTLTCGLSSGSVSTSYYPSWYQQTPGQAPRTLIYSTNTRSSGVPDRFSGSILGNKAALTITGAQADDESDYYCVLYMGSGISYVFGTGTKVTVL
notes: Fab
[21]
  fold ECL signal against the parent Fab: ~2 fold

B3: Fab VH5-51_IGHD5-18*01>3_IGHJ4*01 G104T & V3-4_IGLJ1*01 (Fab, V domains shown)
VH: B2 VH with K100G, G104T
VL: B2 VL
notes: Fab
[21]
  fold ECL signal against the parent Fab: ~2 fold

B4: Fab VH1-46_IGHD6-6*01_IGHJ1*01 & A27_IGKJ1*01 (Fab, V domains shown)
VH: QVQLVQSGAEVKKPGASVKVSCKASGYTFTSYYMHWVRQAPGQGLEWMGIINPSGGSTSYAQKFQGRVTMTRDTSTSTVYMELSSLRSEDTAVYYCAREEYSSSSAEYFQHWGQGTLVTVSS
VL: not shown
notes: Fab; also called non-Hit
[22]
  binding result: no binding

B5: Fab VH1-46_IGHD6-6*01_IGHJ1*01 & L25_IGKJ1*01 (Fab, V domains shown)
VH: B4 VH
VL: EIVMTQSPATLSLSPGERATLSCRASQSVSSSYLSWYQQKPGQAPRLLIYGASTRATGIPARFSGSGSGTDFTLTISSLQPEDFAVYYCQQDYNLPPWTFGQGTKVEIKR
notes: Fab; also called non-Hit
[22]
  binding result: no binding

B6: Fab VH1-46_IGHD6-6*01_IGHJ1*01 & A27_IGKJ1*01 (Fab, V domains shown)
VH: B4 VH
VL: not shown
notes: Germline Fab from the combinatorial library, with CH1 (plus His6 and Flag tags) and a kappa constant region from the expression plasmids
[23]
  binding result: no binding

B7: Fab VH1-46_IGHD6-6*01_IGHJ1*01 & L25_IGKJ1*01 (Fab, V domains shown)
VH: B4 VH
VL: B5 VL
notes: as for B6
[23]
  binding result: no binding

From patent publication US20120316071A1 (published 2012)
